Experimental findings from US7250488 (Kyowa Kirin, dated 2007) are described below.

Experiment [1] addresses T1, mouse β-catenin (mouse, UniProt Q02248 2-781).
T1 construct: mature; also called ^35S-labeled β-catenin
T1 sequence (looked up): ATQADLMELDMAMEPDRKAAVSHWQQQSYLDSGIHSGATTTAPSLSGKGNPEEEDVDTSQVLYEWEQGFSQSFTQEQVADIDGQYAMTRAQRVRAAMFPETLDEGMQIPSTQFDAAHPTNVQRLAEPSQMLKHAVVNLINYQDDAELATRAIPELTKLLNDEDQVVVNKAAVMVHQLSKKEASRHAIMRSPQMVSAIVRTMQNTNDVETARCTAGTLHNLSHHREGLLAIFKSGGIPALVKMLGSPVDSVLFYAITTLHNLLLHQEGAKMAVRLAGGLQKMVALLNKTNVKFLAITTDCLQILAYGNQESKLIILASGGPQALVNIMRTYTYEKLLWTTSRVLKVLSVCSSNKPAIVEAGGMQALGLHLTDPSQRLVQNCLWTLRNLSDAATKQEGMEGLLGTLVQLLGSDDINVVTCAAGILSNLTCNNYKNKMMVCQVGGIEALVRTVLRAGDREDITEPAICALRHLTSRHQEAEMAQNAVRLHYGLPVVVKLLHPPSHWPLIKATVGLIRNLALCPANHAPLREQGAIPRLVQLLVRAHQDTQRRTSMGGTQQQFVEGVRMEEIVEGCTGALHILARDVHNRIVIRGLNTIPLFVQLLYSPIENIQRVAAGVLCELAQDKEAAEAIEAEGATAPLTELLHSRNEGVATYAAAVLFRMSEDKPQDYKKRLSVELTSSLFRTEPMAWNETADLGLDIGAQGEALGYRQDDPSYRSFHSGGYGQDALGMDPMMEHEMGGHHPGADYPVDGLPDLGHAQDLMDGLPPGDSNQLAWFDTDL
Put plainly: immunoprecipitation with anti-ICAT antibody from mouse brain lysate, Western blotting with anti-β-catenin antibody. Here is the method: In the experiment for the detection of ICAT with immunoprecipitation and Western blotting using mouse brain lysate in Example 6, immunoprecipitation was carried out with the anti-ICAT antibody, and then Western blotting was performed with the anti-β-catenin monoclonal antibody (Transduction Laboratory; animal used for the immunization is mouse) as a primary antibody for the detection. […] However, when, in this experiment, the anti-ICAT antibody, which had previously been reacted to GST/ICAT, was used in the immunoprecipitation, the band of β-catenin was not detected because of inhibition of immunoprecipitation.
A general note: Immunoblotting shows a protein as a band on a membrane.

In experiment [2] the target is T2, C-terminal portion of mouse β-catenin (residues 665 to 782), ^35S-labeled (mouse, UniProt Q02248 665-781).
T2 construct: range 665-782; Translated in vitro with ^35S-methionine
T2 sequence (looked up): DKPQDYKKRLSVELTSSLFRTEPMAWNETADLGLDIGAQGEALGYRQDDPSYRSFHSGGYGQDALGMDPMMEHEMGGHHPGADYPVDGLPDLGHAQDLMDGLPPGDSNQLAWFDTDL
Put plainly: GST/ICAT pull-down of ^35S-labeled in vitro translated protein, autoradiography. The protocol: (§1) The GST/ICAT-expressing E. coli as well as control GST-expressing E. coli prepared in Example 3 were cultured to obtain the respective bacterial lysates. Glutathione-Sepharose 4B (Amersham-Pharmacia Biotech) was added to these bacterial lysates, and […] or GST was adsorbed on it to isolate it. The GST/ICAT- or GST-adsorbed glutathione-Sepharose 4B was reacted to the above-mentioned ^35S-labeled β-catenin in buffer A containing 0.1% Triton X-100 at 4° C. for 2 hours. After the glutathione-Sepharose 4B was washed well with buffer A and then SDS-PAGE sample buffer was added thereto to elute the bound protein to the sample buffer. The eluate was used as a sample in SDS-PAGE in which the gel concentration was 15% and then the gel was visualized by autoradiography. […] Accordingly, it has been verified that GST/ICAT directly binds to β-catenin in vitro and that the site responsible for the binding to β-catenin is located within the ICAT moiety of GST/ICAT.
(§2) The region of β-catenin responsible for the binding with ICAT was determined as follows. DNA fragments encoding the region of armadillo domain of mouse β-catenin (residues 141 to 664 in the amino acid sequence), N-terminal portion (residues 1 to 140 in the amino acid sequence), and C-terminal portion (residues 665 to 782 in the amino acid sequence) were amplified by PCR. […]

Experiment [3] addresses T3, N-terminal portion of mouse β-catenin (residues 1 to 140), ^35S-labeled (mouse, UniProt Q02248 1-140).
T3 construct: range 1-140; Translated in vitro with ^35S-methionine
T3 sequence (looked up): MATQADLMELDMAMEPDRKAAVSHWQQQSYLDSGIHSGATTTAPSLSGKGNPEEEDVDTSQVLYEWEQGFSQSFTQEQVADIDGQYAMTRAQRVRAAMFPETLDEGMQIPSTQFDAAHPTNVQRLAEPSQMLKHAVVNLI
Described as above. The protocol: as §1, §2

The target of experiment [4] is T4, GAL4-β-catenin fusion protein (GAL4 BD fused with mβ-catenin arm, residues 141 to 664) (yeast; mouse, UniProt P04386 1-147; Q02248 141-664).
T4 construct: Two-hybrid bait expressed in yeast HF7C; also called bait for mβ-catenin arm
Description: yeast two-hybrid, β-galactosidase activity. From the text: Specifically, both mouse fetal cDNA library for the two-hybrid system and plasmid GAL4-β-catenin prepared in (1) were introduced in yeast *Saccharomyces cerevisiae* HF7C strain (Clontech). HF7C strain is a yeast strain that is tryptophan-, leucine-, and histidine-auxotrophic, and, on the chromosome, has as a reporter gene a gene involved in histidine biosynthesis, HIS3, which has been ligated downstream of GAL1 promoter to which GAL4 BD can bind, as well as has of *E. coli*-derived β-galactosidase gene lazZ ligated downstream of a nucleotide sequence where GAL4 BD can bind (Gene, 212, 197 (1998)). A transformant containing both plasmid GAL4-β-catenin and cDNA clone for protein capable of binding to mβ-catenin arm and expresses the respective fusion proteins, is non-auxotrophic for histidine and is positive in β-galactosidase activity, because GAL4 BD is placed adjacent to GAL4 AD due the binding between mβ-catenin arm and the binding protein, the transcriptions of HIS3 gene and lacZ gene, downstream of the nucleotide sequence to which GAL4 BD binds, are activated. Four clones were finally selected, as colonies positive in β-galactosidase activity from 2.3 ×10^7 transformants which were grown on a medium without any of leucine, histidine, and tryptophan.
Each of these expression plasmids for fusion proteins of GAL4 AD and ICAT mutants was introduced together with the bait plasmid GAL4-β-catenin for mβ-catenin arm into yeast HF7C strain in the same manner as in Example 1, and then the binding of each ICAT mutant with β-catenin was evaluated based on the presence of β-galactosidase activity in the transformants.

For experiment [5], the target named is T1, mouse β-catenin. Put plainly: GST fusion pull-down in vitro, as in Example 8. Here is the method:
as §1, with “Analysis of Binding Between ICAT and β-catenin (1) Detection of the Direct Binding In Vitro The direct binding of ICAT to β-catenin was verified as follows. ^35S-labeled β-catenin was translated and synthesized from mouse β-catenin mRNA in vitro by using ^35S-labeled methionine TNT-reticulocyte lysate system (Promega). The GST/ICAT-expressing” for “The GST/ICAT-expressing”, “of GST/ICAT. […]” for “of GST/ICAT.”

B1: mouse ICAT (inhibitor of β-catenin and TCF) (other)
chain: MNREGAPGKSPEEMYIQQKVRVLLMLRKMGSNLTASEEEFLRTYAGVVSSQLSQLPQHSIDQGAEDVVMAFSRSETEDRRQ
notes: Untagged full-length mouse ICAT (81 amino acids); It was tested expressed from pMKITneo in COS-7 and other animal cells, translated in vitro in reticulocyte lysate, and as the endogenous protein of mouse brain; also called 9-kDa protein
For the molecule B1, the binding result in the experiment with mouse β-catenin [1] is recorded as “binds”.

B2: GST/ICAT (fusion protein between GST and ICAT) (other)
chain: MNREGAPGKSPEEMYIQQKVRVLLMLRKMGSNLTASEEEFLRTYAGVVSSQLSQLPQHSIDQGAEDVVMAFSRSETEDRRQ
notes: Mouse ICAT cDNA was subcloned between EcoRI/SalI of pGEX5X-1, so ICAT sits on the C-terminal side of GST; Expressed in E. coli; not shown: glutathione S-transferase (GST) as encoded by vector pGEX5X-1
With B2, the binding result in experiment [2] and in experiment [3] was “no binding” each time.

B3: ICAT(E37-39A), GAL4 AD fusion (other, not shown: large carriers)
chain: MNREGAPGKSPEEMYIQQKVRVLLMLRKMGSNLTASAAAFLRTYAGVVSSQLSQLPQHSIDQGAEDVVMAFSRSETEDRRQ
notes: The glutamic acid residues 37, 38 and 39 are converted to alanine; Used as a two-hybrid prey; also called (j) ICAT(E37-39A)
In the case of B3, the binding result in experiment [4] is listed as “no binding”.

B4: ICAT(E37-39A) expressed as a GST fusion protein (other)
chain: MNREGAPGKSPEEMYIQQKVRVLLMLRKMGSNLTASAAAFLRTYAGVVSSQLSQLPQHSIDQGAEDVVMAFSRSETEDRRQ
notes: Expressed in E. coli; not shown: glutathione S-transferase (GST); made in the same manner as GST/ICAT
As to B4, the binding result with mouse β-catenin [5] is on record as “no binding”.

B5: ICAT (42-81), GAL4 AD fusion (other, not shown: large carriers)
chain: RTYAGVVSSQLSQLPQHSIDQGAEDVVMAFSRSETEDRRQ
notes: Mouse ICAT deletion mutant used as a two-hybrid prey; also called (e) ICAT(42-81)
With B5, the binding result in experiment [4] is recorded as “no binding”.

B6: ICAT(21-81), GAL4 AD fusion (other, not shown: large carriers)
chain: RVLLMLRKMGSNLTASEEEFLRTYAGVVSSQLSQLPQHSIDQGAEDVVMAFSRSETEDRRQ
notes: Mouse ICAT deletion mutant used as a two-hybrid prey; also called (d) ICAT(21-81)
On to B6, for which the binding result in experiment [4] is “no binding”.

B7: ICAT (21-61), GAL4 AD fusion (other, not shown: large carriers)
chain: RVLLMLRKMGSNLTASEEEFLRTYAGVVSSQLSQLPQHSID
notes: Mouse ICAT deletion mutant used as a two-hybrid prey; also called (g) ICAT(21-61)
In the case of B7, the binding result in experiment [4] is listed as “no binding”.

B8: ICAT(1-41), GAL4 AD fusion (other, not shown: large carriers)
chain: MNREGAPGKSPEEMYIQQKVRVLLMLRKMGSNLTASEEEFL
notes: Mouse ICAT deletion mutant used as a two-hybrid prey; also called (b) ICAT(1-41)
Consider B8, for which the binding result in experiment [4] is on record as “no binding”.
